Residue numbers refer to the chain shown, from its start.

To fix the notation:
T1: human E-selectin, cell-surface expressed (human, UniProt P16581 22-610)
T1 construct: also called CHO-human E-selectin cells; human CHO-E
T1 sequence: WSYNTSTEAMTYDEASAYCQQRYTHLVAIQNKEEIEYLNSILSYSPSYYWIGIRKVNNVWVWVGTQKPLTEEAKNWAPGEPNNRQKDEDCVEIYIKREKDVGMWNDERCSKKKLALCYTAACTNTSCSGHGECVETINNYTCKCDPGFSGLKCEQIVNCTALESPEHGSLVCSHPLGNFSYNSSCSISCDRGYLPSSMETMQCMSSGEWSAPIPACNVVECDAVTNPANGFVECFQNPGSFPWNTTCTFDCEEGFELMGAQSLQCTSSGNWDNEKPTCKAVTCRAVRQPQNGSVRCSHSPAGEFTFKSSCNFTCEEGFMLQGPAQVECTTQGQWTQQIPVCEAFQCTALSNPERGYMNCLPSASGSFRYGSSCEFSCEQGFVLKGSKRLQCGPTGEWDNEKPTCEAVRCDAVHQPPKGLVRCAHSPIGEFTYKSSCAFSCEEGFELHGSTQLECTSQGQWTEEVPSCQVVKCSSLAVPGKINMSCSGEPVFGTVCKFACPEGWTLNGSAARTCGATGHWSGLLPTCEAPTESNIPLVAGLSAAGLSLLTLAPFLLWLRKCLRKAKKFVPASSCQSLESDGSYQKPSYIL

T2: soluble recombinant human P-selectin (human, UniProt P16109 42-771, limits assumed)
T2 sequence (looked up): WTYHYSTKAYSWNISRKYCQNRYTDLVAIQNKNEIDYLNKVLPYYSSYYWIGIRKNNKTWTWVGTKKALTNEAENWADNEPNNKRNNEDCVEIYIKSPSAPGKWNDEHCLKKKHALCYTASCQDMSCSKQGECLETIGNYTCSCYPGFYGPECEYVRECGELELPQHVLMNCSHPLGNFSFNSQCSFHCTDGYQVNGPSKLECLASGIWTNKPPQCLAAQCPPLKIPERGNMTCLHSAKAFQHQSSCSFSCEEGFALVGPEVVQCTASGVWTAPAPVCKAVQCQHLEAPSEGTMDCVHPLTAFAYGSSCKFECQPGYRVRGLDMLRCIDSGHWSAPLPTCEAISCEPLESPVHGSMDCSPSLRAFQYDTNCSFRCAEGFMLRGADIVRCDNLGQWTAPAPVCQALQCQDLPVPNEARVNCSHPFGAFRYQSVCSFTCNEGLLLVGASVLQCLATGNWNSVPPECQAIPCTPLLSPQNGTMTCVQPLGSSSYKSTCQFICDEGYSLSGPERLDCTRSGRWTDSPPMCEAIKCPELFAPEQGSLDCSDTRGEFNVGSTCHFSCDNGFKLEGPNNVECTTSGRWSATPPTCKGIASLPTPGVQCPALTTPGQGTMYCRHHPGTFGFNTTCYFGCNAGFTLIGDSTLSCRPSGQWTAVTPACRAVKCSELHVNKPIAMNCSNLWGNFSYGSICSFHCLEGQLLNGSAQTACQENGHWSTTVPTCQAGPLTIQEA

B1: humanized anti-E-selectin antibody 0841 (antibody, human IgG1, kappa, V domains shown)
VH: EVQLVESGGGLVQPGGSLRLSCAASGYNIRSSYMHWVRQAPGKGLEWVARIDPANGNTIYAEKFKIRFTISADNAKNSAYLQMNSLRAEDTAVYYCAMDLYSTSEYWGQGTLVTVSS
VL: DIQMTQSPSSLSASVGDRVTITCKTSQNINRYLNWYQQKPGKAPKLLIYNANSLQTGVPSRFSGSGSGTDFTLTISSLQPEDFATYFCLQDNSWPLTFGQGTKVEIKR
notes: effector-null human IgG1, kappa
B2: anti-E-selectin antibody 0164 chimera (antibody, human IgG1, kappa, V domains shown)
VH: EVQLQQSGAEFGKPGTSVKLSCKVSGYNIRSSYMHWVNQRPGKGLEWIGRIDPANGNTIYAEKFKIKAILTADSSSNTAYMQLSQLKSDDTAIYFCAMDLYSTSEYWGQGVMVTVSS
VL: B1 VL with S10F, T22N, P40L, K42E, V58I, G64A, S76N, F83V, Q100S, V104L
notes: rat VH/VL on effector-null human IgG1 and human kappa
B3: optimized anti-E-selectin antibody 1282 (antibody, human IgG1, kappa, V domains shown)
VH: B1 VH with N28A, S32A, A61V, E62D, K63S, F64V, K65E, I66G
VL: B1 VL with N30E, N50A, N52S, T56S, S93A
notes: as for B1
B4: optimized anti-E-selectin antibody 1448 (antibody, human IgG1, kappa, V domains shown)
VH: B1 VH with N28A, S32A, A61V, E62D, K63S, F64V, I66E
VL: B1 VL with N30E, N50A, N52S, T56S, S93A
notes: as for B1
B5: optimized anti-E-selectin antibody 1284 (antibody, human IgG1, kappa, V domains shown)
VH: B1 VH with N28A, S32A, A61V, K63S, F64V, K65E, I66G
VL: B1 VL with N30E, N50A, N52S, T56S, S93A
notes: as for B1
B6: optimized anti-E-selectin antibody 1444 (antibody, human IgG1, kappa, V domains shown)
VH: B1 VH with N28A, S32A, A61V, E62D, K63S, F64V, K65T, I66G
VL: B1 VL with N30E, N50A, N52S, T56S, S93A
notes: as for B1

One experiment addresses T1, human E-selectin, cell-surface expressed. The experiment can be described thus: flow cytometry, CHO cells. As for the experimental part:
Cells were maintained in growth medium at 37° C., 5% CO₂ and 95% air in a humidified incubator. Methotrexate or Zeocin were removed from the medium prior to culture for experiments. CHO-E selectin cells were detached from T-150 flasks using citric saline (135 mM KCl, 15 mM sodium citrate) and immediately re-calcified with the addition of CaCl₂) to the detached cells to a final concentration of 1 mM. Growth media was immediately added to the detached cells, then centrifuged at 300×g for 5 minutes at room temperature to pellet the cells. Cells were plated into 96-well round-bottom plates in cold CHO buffer consisting of phosphate buffered saline (PBS), pH 7.4 containing bovine serum albumin (BSA; Sigma-Aldrich) at final concentration of 1%, calcium chloride at final concentration of 1 mM, and sodium azide at a final concentration of 0.1%, for 5 minutes on wet ice. After incubation, the cells were centrifuged at 300×g for 2 minutes at 4° C. to remove the buffer.
After incubation, the antibodies were removed and the cells were washed three times by centrifugation at 300×g for 1 minute at 4° C. and resuspended in cold CHO buffer. The washed cells were resuspended and incubated for 30 minutes on wet ice with 100 μL of 1:1000 dilution of APC-conjugated AffiniPure F(ab′)₂ Fragment Goat Anti-human IgG, Fcγ (Jackson Immunoresearch). The cells were washed three or four times prior to resuspension in CHO buffer for flow cytometric analysis. A Becton Dickinson LSRFortessa instrument using 640 nanometer laser line was used to acquire cell fluorescence data. Geometric mean fluorescence of cells was analyzed by FlowJo software package (FlowJo, LLC) and plotted against antibody concentration. The estimated EC₅₀ values were calculated using nonlinear regression analysis in the GraphPad Prism suite.
On the technique in general: In flow cytometry, cells or beads pass a laser one at a time.
As to B1, the EC50 came out at 1.62 nM.
The molecule B2 registered a half-maximal effective concentration (EC50) of 1.39 nM. The EC50 values of the last two molecules are within 1.5-fold of each other.

In the next experiment the target is T2, soluble recombinant human P-selectin. The experiment in a line: direct binding ELISA on immobilized human P-selectin, absorbance at 450 nm. As for the experimental part:
Recombinant histidine tagged human P-, E- or L-selectin (Sino Biologicals), mouse E-selectin (Sino Biologicals), rat E-selectin (Sino Biologicals) and Cynomolgus monkey E-selectin (Sino Biologicals) stock solutions were prepared to a final concentration of 1 μg/mL in phosphate buffered saline without calcium and magnesium. Controls included an L-selectin directed antibody (BioLegend; 304811) or P-selectin directed antibody or a negative control IgG. One hundred μL per well of the diluted recombinant selectin proteins were added into a Ni-NTA HisSorb 96 well plate (Qiagen; 35061). Plates were incubated on an orbital shaker at room temperature for 2 hours. Following the incubation, the plates were washed 3 times with 200 μL of wash buffer (50 mM TRIS [trisaminomethane]; 150 mM sodium chloride; 0.05% polysorbate 20, pH 7.4). To decrease nonspecific binding, plates were treated with 200 μL of blocking buffer (BD Opteia buffer; 555213; BD Biosciences), incubated on an orbital shaker for 1 hour at room temperature and washed as described above. […] One hundred μL specific detection antibodies (described below) were added and incubated for 1 hour: [0556] […] Anti L-selectin and anti-rat-E-selectin antibodies were detected using 1 to 25000 dilution of Peroxidase-conjugated AffiniPure Goat Anti-Mouse IgG (H+L); (Jackson ImnnunoResearch Lab).
Plates were washed and 100 μL per well of 1-Step Ultra TMB substrate (Thermo Scientific) was added and incubated for 5 minutes at room temperature. Reactions were stopped with 100 μL of 2 M sulfuric acid and absorbance read at 450 nm (Spectramax M5e).
On the technique in general: In an ELISA, binding on a coated surface is turned into a signal by an enzyme label.
On to B1, for which the binding result is recorded as “no binding (tested: 10 ug/ml)”.
Regarding B3, the binding result is listed as “no binding (tested: 10 ug/ml)”.
With B4, the binding result was “no binding (tested: 10 ug/ml)”.
For the molecule B5, the binding result is given as “no binding (tested: 10 ug/ml)”.
Take B6: the binding result is “no binding (tested: 10 ug/ml)”.

For orientation: EC50 means the concentration at which the effect is half-maximal. Low readings indicate a more potent agent, high ones a less potent agent.

The values are drawn from patent US20240076386A1 (Pfizer, published 2024).
